In US20030105283A1:

B1: purified antigenic protein MF-1 (protein)
chain: PGDPTATAKGNEIPDTLMGYIPWTPELDSGEVCGIPTTFKTRDEWKGKKVVIVSIPGAYTPICHQQHIPPLVKRVDELKAKGVDAVYVIASNDPFVMAAWGNFNNAKDKVVFATDIDLAFSKALGATIDLSAKHFGERTARYALIIDDNKIVDFASDEGDTGKLQNASIDTILTKV
B2: purified antigenic protein MF-2 (protein)
chain: EIGSTIPNATFAYVPYSPELEDHKVCGMPTSFQSHERWKGKKVVIVAVPGAFTPTCTANHVPPYVEKIQELKSKGVDEVVVISANDPFVLSAWGITEHAKDNLTFAQDVNCEFSKHFNATLDLSSKGMGLRTARYALIANDLKVEYFGIDEGEPKQSSAATVLSKL
modifications: N-terminus blocked

Assays:
[1] = biological target: IgE antibodies in pooled sera from patients (collection of sera from 10 patients showing high values in RAST method); assay: RAST cross inhibition, pooled patient sera; competitor: MF-1 immobilised on solid phase
[2] = biological target: IgE antibodies in pooled sera from patients (collection of sera from 10 patients showing high values in RAST method); assay: RAST cross inhibition, pooled patient sera; competitor: MF-4 immobilised on solid phase
[3] = biological target: IgE antibodies in pooled sera from patients (collection of sera from 10 patients showing high values in RAST method); assay: RAST cross inhibition, pooled patient sera; competitor: MF-2 immobilised on solid phase

Row | Binder | IC50 [1] | relative concentration for 50% inhibition (in brackets; homologous antigen = 1) [1] | IC50 [2] | relative concentration for 50% inhibition (in brackets; homologous antigen = 1) [2] | IC50 [3] | relative concentration for 50% inhibition (in brackets; homologous antigen = 1) [3]
1 | B1 | 0.038 µg/mL | 1 | 18 µg/mL | 290 | > 100 µg/mL | > 7700
2 | B2 | 8.6 µg/mL | 230 | 30 µg/mL | 480 | 0.013 µg/mL | 1
